Assay results reported in the supplement of paper PMC9170038.

Tested on: K4 kissing-loop RNA reporter
Test: apparent KD of K4 kissing-loop reporter; higher = weaker reporter binding
Details: Eterna round: R107
Procedure: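 RNA-MaP round R107: designed RNA switches with theophylline, tryptophan, arginine or FMN aptamers are transcribed on-chip within common flanks. They are titrated with a labelled K4 kissing-loop RNA reporter in RNA-MaP buffer (100 mM Tris pH 7.5, 80 mM KCl, 4 mM MgCl2), without ligand or with the indicated ligand. Median apparent KD per design.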

[1] = input ligand: theophylline 20 uM
[2] = input ligand: tryptophan 2.4 mM
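Also: bound reporter read as fluorescence of individual clusters on recovered sequencing chips by microscopy, with normalized cluster intensities fitted with a binding model.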

| Sequence | apparent KD of K4 kissing-loop reporter (input ligand: FMN 200 uM) | apparent KD of K4 kissing-loop reporter (input ligand: arginine 13.2 mM) | apparent KD of K4 kissing-loop reporter (input ligand: none) | apparent KD of K4 kissing-loop reporter [1] | apparent KD of K4 kissing-loop reporter [2] |
| --- | --- | --- | --- | --- | --- |
| AAACAUUGGUCGGAUACCAGCUUGAUCGGAAACGAUCUGCUGGAGUGAUGUUCCAAGUAAAGCCCUUGGCAGCCGACCGAUGAAA [MAT - Same State Theophlline B - Mod of Eli - D17] | 0.133 µM | 0.0628 µM | 0.0556 µM | 0.143 µM | 0.0745 µM |
| UAAAUAAUAAAACGAGUGAUGUUCGACGAUACCAGCCUCGAUAGAGGCCCUUGGCAGCGUAAAUGAUCACAAAGCCAAGGAAUAA [#OpenEnded 1] | 0.158 µM | 0.174 µM | 0.158 µM | 0.192 µM | 0.134 µM |
| AGGGUAAGGCGUUAACAUGACACCUGGGAAGGAGCGCGGUACACCGCAGGUAGGUCGCCCAGUGAUGUUGGGUGAUUGUAUGAGU [KL-XArg-A24] | 0.149 µM | 0.123 µM | 0.136 µM | 0.15 µM | 0.131 µM |
| UGCAGUGAUGUUGCUAUUUGUCUUGAUAAACGAGGACCGGUACGGCCGCCACUCGAUUUCUCUCUUAUCGGGUAUGUUGUUUAGU [#21 K4 Tryptophan A Exclusion] | 0.156 µM | 0.186 µM | 0.172 µM | 0.205 µM | 0.113 µM |
| GUAGCUAAAGAAGGAUAUCGGAUCCAAAUCAAGCAGUGAUGUUGCGUGAAGAUCGGCUCCAUGCCGCGAGAAGGUCUUUUCUGUU [theeternabot_sameState_KL_FMN_B_18] | 0.179 µM | 0.305 µM | 0.207 µM | 0.284 µM | 0.147 µM |
| UUUAAACAUAGUGAUGUUAUGUAACAGUGACGAGGACCGGUACGGCCGCCACUCGAGAGAGAUAGUGGUCAUGCAAAUGUAUGCC [#16 K4 Tryptophan A Same State] | 0.145 µM | 0.167 µM | 0.123 µM | 0.136 µM | 0.137 µM |
| UAAUCCUAGUGAUACUUAUCAAGUGGUGGGCGAGGACCGGUACGGCCGCCACUCGAAUAUGCAGUGAUGUUGUAAUCCGGAUAAU [Exclusion - Tryptophan A (Freestyle 8)] | 0.668 µM | 0.722 µM | 0.997 µM | 1.5 µM | 0.397 µM |
| AGACUACCACACUGUCAAUAGACAGUGAACUAGGAUAUGCUGAUAAGCAGAAGGAGUGAUGUUCCUGGGUAGUCAAUAAAAUAAU [FmnAX 13 G67] | 0.372 µM | 0.338 µM | 0.367 µM | 0.427 µM | 0.364 µM |
| GCUAUGGUUGGAAGGAGCGUUGGGUUACUAAUAAGAGUGAUGUUCGAUAGUAGGUAAUUGUAGCAGGUAGGUCGCCAACUAUAGC [KL-Arg B26] | 0.29 µM | 0.304 µM | 0.329 µM | 0.234 µM | 0.211 µM |
| AGACUACCACACUGUCAAUAGACAGUGAACUAGGAUAUGCUGAUAAGCAGAAGGAGUGAUGUUCCUAGGUAGUCAAUAAAAUAAU [FmnAX 13 #SwitchBubble #StaticStem #K4Early] | 0.349 µM | 0.35 µM | 0.383 µM | 0.447 µM | 0.401 µM |
| UGACUGGACUGAAGGAGCGCUGAACUCCUAGUGAUGUUAGGAUAACGAGACAAAGUCUCGCGGCAGGUAGGUCGCAGUCUAGUCU | 0.122 µM | 0.0933 µM | 0.109 µM | 0.0993 µM | 0.106 µM |
| GGUGCGCUGUUAGUGAUGUUAACCGAGGAUACCAGUUAGGCGUCUAACCCUUGGCAGCCUCUCUGGUCUCAUCAACGUUGUGCUA [theeternabot_exclusion_KL_Theo_A_37] | 0.6 µM | 0.431 µM | 0.599 µM | 0.641 µM | 0.463 µM |
| AAAUUUGCCACUGAUACCAGCCAGUGAUGUUGGCGGUAGUUCUAUGGUACCAUACAUUGUGGCCCUUGGCAGCAGGGCACAGAGC [Raxeisra] | 0.115 µM | 0.0998 µM | 0.0927 µM | 0.115 µM | 0.113 µM |
| CCAUUCAUUUACGAUACCAGUCUAAUAUAUUUGAUCAAAACCCUCGCCGAGUGAUGUUCGGACCCUUGGCAGCGUCUGGGACAGG [eesetmullin] | 0.477 µM | 0.325 µM | 0.503 µM | 0.403 µM | 0.414 µM |
| ACACUUUACGUAGGAUAUGCGACGAGUGAUGUUCGUCAGGCGGCUUUAGCUUAAGCAAGCCGCCUAGCAGAAGGACGGGCAGUGU [Bigemalaza] | 0.139 µM | 0.163 µM | 0.179 µM | 0.185 µM | 0.173 µM |
| UGACGUUUGGGAAGGAGCGGAAUGUAAUACGGAAUGCGUGGAGAUGCAGUGAUGUUGCAGAUCCAGGUAGGUCGCCCAAGGGACG [Soanina] | 0.0995 µM | 0.0849 µM | 0.0912 µM | 0.0793 µM | 0.0878 µM |

| Sequence | apparent KD of K4 kissing-loop reporter (input ligand: FMN 200 uM) | apparent KD of K4 kissing-loop reporter (input ligand: arginine 13.2 mM) | apparent KD of K4 kissing-loop reporter (input ligand: none) | apparent KD of K4 kissing-loop reporter [1] | apparent KD of K4 kissing-loop reporter [2] |
| --- | --- | --- | --- | --- | --- |
| GCGUCGCAGGUCGCAGUACCAUCGCGGGAUACCAGCCCUGCUACCGGCCCUUGGCAGCCCGGUUAUCGGUUAGUGAUGUUAGCCA [theeternabot_sameState_KL_Theo_A_44] | 0.642 µM | 0.531 µM | 0.739 µM | 0.621 µM | 0.591 µM |
| AGUAGUUGGGCGGCCGCCACUAGAACAGCUUUGCCAAAGGCAGAGCUCUAGAGUGAUGUUCUGGCUAGGACCGGGUCCAACUACA [#01 K4 Tryptophan B Same State] | 0.93 µM | 0.594 µM | 0.932 µM | 0.98 µM | 0.417 µM |
| UGACUGGACUGAAGGAGCGCCACGGUCAUAGACCGAAUAAGGAGUGAUGUUCCACAUAAAAGGCAGGUAGGUCGCAGUCUAGUCU [ArgBS 2 #SwitchBubble #StaticStem] | 0.121 µM | 0.113 µM | 0.107 µM | 0.0981 µM | 0.101 µM |
| ACGUAGUUCUAGGAUACCAGCCAAGGAGCCCAGGACAAAAGUCCUGGCGCCAGUGAUGUUGGCCCUUGGCAGCCUAGAACUACGA [Omei KL Theo B Exc B v4] | 0.181 µM | 0.157 µM | 0.157 µM | 0.136 µM | 0.151 µM |
| UUUAUAUAGUCGGCCGCCACUGAUUUUUAUAUAUGUUUAUGUUUAUACGAGUGAUGUUCGAUAUACAGGACCGGGACUUUUGUUA [JR_SSTryptoB_Sub017] | 0.268 µM | 0.291 µM | 0.294 µM | 0.306 µM | 0.207 µM |
| UAAUUUAUAACUUUUAUAUAAUAAUCAGAUACCAGUGAUUAAUGUCACCCUUGGCAGCUGUAUAGAGUGAUGUUCUAAUGCUUAA [JR_SSTheophyA_Sub023] | 0.204 µM | 0.198 µM | 0.147 µM | 0.223 µM | 0.149 µM |
| CUACUGAGUGAUGUUCAACAUAAUGUCGAUACCAGCACAUUUGCCUGCCCUUGGCAGCGACGCACCAGGACCUGAGAGUACUGGU [theeternabot_sameState_KL_Theo_A_13] | 0.567 µM | 0.637 µM | 0.623 µM | 0.612 µM | 0.41 µM |
| ACUGGAAACAUCACGUAUCCAAAACUGGAUACCAGCUCGGAAACGAGCCCUUGGCAGCCAGAACUUGCAGUGAUGUUGCAAGUAA [Design9] | 0.386 µM | 0.323 µM | 0.385 µM | 0.392 µM | 0.398 µM |
| AGUCCACUCUAAAGAGUGGACCUAAGGGAUACCAGUGAUGUUGGUCACCCUUGGCAGCCCAGGGCCCGGCGAAUAGCCGGGCCCA [#10 K4 Theophylline A Exclusion] | 0.125 µM | 0.0998 µM | 0.115 µM | 0.121 µM | 0.125 µM |
| AGCCUAGGAGUCAUUUCCUGCCCGUACGAUACCAGCAUUACCAGUUGCCCUUGGCAGCGUUAUAAGGCCAGUGAUGUUGGCCACU [theeternabot_sameState_KL_Theo_A_22] | 0.168 µM | 0.175 µM | 0.185 µM | 0.197 µM | 0.167 µM |
| AUAUUGGUUGAGAGUGAUGUUCCUUGUGUUCGAGGACCGGUACGGCCGCCACUCGGGUAGAAAAUAAAAGAUGUGUUUGAUUUUU [BDazzled - #13 SS Tryptophan A] | 0.237 µM | 0.101 µM | 0.125 µM | 0.185 µM | 0.212 µM |
| UACUAUAGUGAUGUUAUAGAUAAACCAGAUACCAGUGUAACAUAACACCCUUGGCAGCUGAUGAGGGAACAUAUGAAAACAUAUG [AstroSTH-A#6newdesignED4.78] | 0.254 µM | 0.209 µM | 0.256 µM | 0.215 µM | 0.222 µM |
| ACAUGCCCAGUGAUGUUGGAUAAAUAUGAAGGAGCGUGCGAAAGCACAGGUAGGUCGCAUAAUAGCAUGAGUCACGAAAGUGACA [#18 K4 Arginine A Same State] | 0.327 µM | 0.291 µM | 0.356 µM | 0.278 µM | 0.209 µM |
| CGAGUGAUGUUCGUUCUUUUAUUUUUUUGACAGGAUAUGCGGAAACGCAGAAGGGUCACCUUUGAGUUAAAAGAAUUUAAGUUAU [Ex FMN A 24] | 0.309 µM | 0.284 µM | 0.353 µM | 0.287 µM | 0.235 µM |
| GCCGUAGAUUGAAGGAGCGGACAGAUACGGGUAUCCAGUGAUGUUGGAAGGUAGCUACUAGUCCAGGUAGGUCGCAAUCUACGGC | 0.283 µM | 0.111 µM | 0.304 µM | 0.286 µM | 0.164 µM |
| GUUAUGGACCUGGAUACCAGCUGGUACUAAGUGGGAAAAUGAAAGUGAUGUUUUCGUGCUAGCCCUUGGCAGCCAGCAACCCGCA [XTheo-B6] | 0.12 µM | 0.124 µM | 0.121 µM | 0.133 µM | 0.11 µM |
